Source: patent publication US20190022211A1 (CELLTRION, published 2019)
Values joined by “and” are separate entries in the source; they are usually repeats but may differ in a detail not shown here. Equal entries are not always repeated.

What was measured:
[1] = target: G protein of rabies virus Mongoose RSA , on virus (rabies virus); test: cell-based or functional assay
[2] = target: G protein of rabies virus DR Brazil , on virus (rabies virus); test: cell-based or functional assay

Binder	neutralizing activity (RFFIT) [1]	neutralizing activity (RFFIT), Titer [1]	neutralizing activity (RFFIT) [2]	neutralizing activity (RFFIT), Titer [2]
antibody 1 (antibody, V domains shown) VH: VQLLQESGPGLAKPSETLSLICTVSGGSISRRRDYWGWIRQPPGRGLEWIGSFFHRGSTYYNPSLESRVSISVDPSKNQFSLHLSSVTVADTAVYYCARHPSTPFAEYLLLPDAFDSWGQGTLVTVSS VL: DIVMTQSPATLSVSPGERATLSCRASQSVRSSLAWYQQRPGQAPRLLISGASTRATDIPARLSGSGSGTEFTLTVSSLQSEDFAVYYCQQYSDWPLTFGGGTKVEIKR	7.7 IU/mL and 7710 IU/mg	270	2.2 IU/mL and 2240 IU/mg	56
antibody 2 (antibody, V domains shown) VH: EVQLVESGAEVKKPGASVKVSCKASGYTFTSYDISWVRQAPGQGLEWMGWISTYKGNTNFAQKFQDRVTLTTDTSTTTAYMELRSLTSDDTAVYYCARAKSHPFYDFWSAYYVPGAFDIWGQGTVVTVSS VL: not shown	9.1 IU/mL and 9140 IU/mg	320	1.8 IU/mL and 1800 IU/mg	45
